Drawing on the supplement of paper PMC10567573, this text covers protein stability index for 28 sequences.

± gives the standard deviation.

The nature of the data set: protein stability index of a GFP-peptide fusion (GPS, HEK-293T) (PSI 1-6); higher = more stable. The conditions noted are these: c terminus: a fixed tail appended.
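Note: 24-mer peptide tiles fused after GFP, lentivirally expressed, FACS-sorted into six equal bins by GFP/DsRed ratio, decoded by Illumina sequencing, PSI is the read-weighted mean bin number.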

On to GTRGRLESAQATFQAHRDKYEKLR [ARFIP2], for which the protein stability index came to 4.27 ± 0.31 (treatment: DMSO) and 4.44 ± 0.28 (treatment: MLN4924 1 uM, 8 h).
Taken in the same sequence, the figures for GTRYSAPANLYVRELREVRRVPPR [PTPRD] were 4.23 ± 0.23 and 3.9 ± 0.12.
In the same order, the values of GVGAYGTVYKARDPHSGHFVALKS [CDK4] are 2.89 ± 0.12 and 3.05 ± 0.32.
As to GVGGKRSSKSDADSGFLGLRPTSV [NOP53], the protein stability index runs as follows: (treatment: DMSO) 4.16 ± 0.44; (treatment: MLN4924 1 uM, 8 h) 4.03 ± 0.27.
Consider GVIDLFGDAFGSSASEPQPASQAA [SNAP91], for which the protein stability index came to 3.98 ± 0.14 (treatment: DMSO) and 4.11 ± 0.17 (treatment: MLN4924 1 uM, 8 h).
With GVLVEDSNNHHLMLEASEWATIEG [ZBED1], the protein stability index (treatment: DMSO) is 4.2 ± 0.33 and the protein stability index (treatment: MLN4924 1 uM, 8 h) came to 4.6 ± 0.32.
With GVSFSTVENELMISYLMFLQILVY [FAM98B], the protein stability index (treatment: DMSO) is 3.08 ± 0.45 and the protein stability index (treatment: MLN4924 1 uM, 8 h) stood at 3.22 ± 0.41.
Taken in the same sequence, the figures for GVSYTFDNEDSELNGDYGENIYPY [MIA2] were 3.93 ± 0.061 and 3.77 ± 0.55.
As to GWFVRELRVEFAAENYLSGGGPGD [FBXO33], the protein stability index (treatment: DMSO) came out at 2.14 ± 0.27 and the protein stability index (treatment: MLN4924 1 uM, 8 h) is 2.21 ± 0.28.
Taken in the same sequence, the figures for GYPAAPPAVPFAPHFLQGGPFPLP [TBX6] were 2.52 ± 0.58 and 2.7 ± 0.35.
Taken in the same sequence, the figures for HADCDRRSRIEALELLGASFANDR [FEM1B] were 3.98 ± 0.31 and 4.17 ± 0.19.
Taken in the same sequence, the figures for HAVVEVEDVPLAAKLVDLPCVIES [TAF7L] were 3.86 ± 0.28 and 4.03 ± 0.17.
On to HCGELKRRLGLSTLGELKQNLSRS [TPD52L2], for which the protein stability index reads like this: (treatment: DMSO) 3.04 ± 0.22; (treatment: MLN4924 1 uM, 8 h) 3.22 ± 0.44.
For HFCVDDTKLLSGSYDCTVKLWDPV [WDR88], the protein stability index (treatment: DMSO) stood at 2.65 ± 0.24 and the protein stability index (treatment: MLN4924 1 uM, 8 h) amounted to 2.58 ± 0.23.
Taken in the same sequence, the figures for HGDYFRLLLPGIYTVSATAPGYDP [CPN1] were 2.78 ± 0.71 and 2.48 ± 0.48.
Taken in the same sequence, the figures for HGIELHSDVVEYAKEKLESFIKNS [PCMTD1] were 3.95 ± 0.35 and 4.04 ± 0.15.
On to HGRHIDCPATWGPSVEQAADSLDF [FOXJ1], for which the protein stability index is, setting by setting: (treatment: DMSO) 4.31 ± 0.22; (treatment: MLN4924 1 uM, 8 h) 4.58 ± 0.11.
In the same order, the values of HIFAHRIYLATSSSKFYDLFLMEC [RHOBTB1] are 3.07 ± 0.6 and 2.38 ± 0.49.
In the same order, the values of HKTHQAPASASSLPGTGAQLPPQP [DYRK1B] are 4.55 ± 0.43 and 4.97 ± 0.22.
Taken in the same sequence, the figures for HLDHYYQEELPALLKALVSELSEH [FCHSD1] were 2.3 ± 0.079 and 2.15 ± 0.37.
Turning to HLQEYAGNFQGIRFHYDRNPGTDA [FATE1], the protein stability index was 3.37 ± 0.39 (treatment: DMSO) and 3.46 ± 0.3 (treatment: MLN4924 1 uM, 8 h).
Taken in the same sequence, the figures for HMVKISGGPRISYPLLHEWALREG [MAGEA6] were 2.47 ± 0.23 and 2.46 ± 0.22.
In the same order, the values of HRSACSSAAVRGHPRALPPDARPH [HAGHL] are 3.81 ± 0.19 and 3.77 ± 0.17.
Taken in the same sequence, the figures for HSYMGMRGFCAFLGSWLVPFAYLT [POMT2] were 2.96 ± 0.86 and 3.04 ± 0.62.
Regarding HTCLMISCYKGHREIARYLLEQGA [FEM1A], the protein stability index reads like this: (treatment: DMSO) 2.46 ± 0.5; (treatment: MLN4924 1 uM, 8 h) 2.38 ± 0.35.
With HTGERPYECTVCKKRFTRRSHLIG [ZNF449], the protein stability index was 2.67 ± 0.36 (treatment: DMSO) and 3.17 ± 0.88 (treatment: MLN4924 1 uM, 8 h).
As to HVIGEDAACIAYIRLTQYIDGQGR [CAMK2B], the protein stability index came out at 2.15 ± 0.21 (treatment: DMSO) and 2.08 ± 0.2 (treatment: MLN4924 1 uM, 8 h).
Taken in the same sequence, the figures for HWATGYSKSSHPLIRSLFHGFLFM [SOAT1] were 2.86 ± 0.7 and 2.49 ± 0.56.
